B1: endogenous DONSON: endogenous DONSON protein in Jurkat extract (protein)
chain: MALSVPGYSPGFRKPPEVVRLRRKRARSRGAAASPPRELTEPAARRAALVAGLPLRPFPAAGGRGGGSGGGPAAARRNPFARLDNRPRVAAEPPDGPAREQPEAPVPFLDSNQENDLLWEEKFPERTTVTELPQTSHVSFSEPDIPSSKSTELPVDWSIKTRLLFTSSQPFTWADHLKAQEEAQGLVQHCRATEVTLPKSIQDPKLSSELRCTFQQSLIYWLHPALSWLPLFPRIGADRKMAGKTSPWSNDATLQHVLMSDWSVSFTSLYNLLKTKLCPYFYVCTYQFTVLFRAAGLAGSDLITALISPTTRGLREAMRNEGIEFSLPLIKESGHKKETASGTSLGYGEEQAISDEDEEESFSWLEEMGVQDKIKKPDILSIKLRKEKHEVQMDHRPESVVLVKGINTFTLLNFLINSKSLVATSGPQAGLPPTLLSPVAFRGATMQMLKARSVNVKTQALSGYRDQFSLEITGPIMPHSLHSLTMLLKSSQSGSFSAVLYPHEPTAVFNICLQMDKVLDMEVVHKELTNCGLHPNTLEQLSQIPLLGKSSLRNVVLRDYIYNWRS
B2: FBXO3 (protein, UniProt Q9UK99 1-471, looked up)
F-box only protein 3: MAAMETETAPLTLESLPTDPLLLILSFLDYRDLINCCYVSRRLSQLSSHDPLWRRHCKKYWLISEEEKTQKNQCWKSLFIDTYSDVGRYIDHYAAIKKAWDDLKKYLEPRCPRMVLSLKEGAREEDLDAVEAQIGCKLPDDYRCSYRIHNGQKLVVPGLLGSMALSNHYRSEDLLDVDTAAGGFQQRQGLKYCLPLTFCIHTGLSQYIAVEAAEGRNKNEVFYQCPDQMARNPAAIDMFIIGATFTDWFTSYVKNVVSGGFPIIRDQIFRYVHDPECVATTGDITVSVSTSFLPELSSVHPPHYFFTYRIRIEMSKDALPEKACQLDSRYWRITNAKGDVEEVQGPGVVGEFPIISPGRVYEYTSCTTFSTTSGYMEGYYTFHFLYFKDKIFNVAIPRFHMACPTFRVSIARLEMGPDEYEEMEEEEEEEEEEDEDDDSADMDESDEDDEEERRRRVFDVPIRRRRCSRLF
B3: FBXO45 (protein, UniProt P0C2W1 2-286, looked up)
F-box/SPRY domain-containing …: AAPAPGAGAASGGAGCSGGGAGAGAGSGSGAAGAGGRLPSRVLELVFSYLELSELRSCALVCKHWYRCLHGDENSEVWRSLCARSLAEEALRTDILCNLPSYKAKIRAFQHAFSTNDCSRNVYIKKNGFTLHRNPIAQSTDGARTKIGFSEGRHAWEVWWEGPLGTVAVIGIATKRAPMQCQGYVALLGSDDQSWGWNLVDNNLLHNGEVNGSFPQCNNAPKYQIGERIRVILDMEDKTLAFERGYEFLGVAFRGLPKVCLYPAVSAVYGNTEVTLVYLGKPLDG
B4: LMO4 (protein, UniProt P61968 1-165, looked up)
LIM domain transcription …: MVNPGSSSQPPPVTAGSLSWKRCAGCGGKIADRFLLYAMDSYWHSRCLKCSCCQAQLGDIGTSCYTKSGMILCRNDYIRLFGNSGACSACGQSIPASELVMRAQGNVYHLKCFTCSTCRNRLVPGDRFHYINGSLFCEHDRPTALINGHLNSLQSNPLLPDQKVC
B5: PITPNA (protein, UniProt Q00169 2-270, looked up)
Phosphatidylinositol transfer …: VLLKEYRVILPVSVDEYQVGQLYSVAEASKNETGGGEGVEVLVNEPYEKDGEKGQYTHKIYHLQSKVPTFVRMLAPEGALNIHEKAWNAYPYCRTVITNEYMKEDFLIKIETWHKPDLGTQENVHKLEPEAWKHVEAVYIDIADRSQVLSKDYKAEEDPAKFKSIKTGRGPLGPNWKQELVNQKDCPYMCAYKLVTVKFKWWGLQNKVENFIHKQERRLFTNFHRQLFCWLDKWVDLTMDDIRRMEEETKRQLDEMRQKDPVKGMTADD
B6: CAPN6 (protein, UniProt Q9Y6Q1 1-641, looked up)
Calpain-6: MGPPLKLFKNQKYQELKQECIKDSRLFCDPTFLPENDSLFYNRLLPGKVVWKRPQDICDDPHLIVGNISNHQLTQGRLGHKPMVSAFSCLAVQESHWTKTIPNHKEQEWDPQKTEKYAGIFHFRFWHFGEWTEVVIDDLLPTINGDLVFSFSTSMNEFWNALLEKAYAKLLGCYEALDGLTITDIIVDFTGTLAETVDMQKGRYTELVEEKYKLFGELYKTFTKGGLICCSIESPNQEEQEVETDWGLLKGHTYTMTDIRKIRLGERLVEVFSAEKVYMVRLRNPLGRQEWSGPWSEISEEWQQLTASDRKNLGLVMSDDGEFWMSLEDFCRNFHKLNVCRNVNNPIFGRKELESVLGCWTVDDDPLMNRSGGCYNNRDTFLQNPQYIFTVPEDGHKVIMSLQQKDLRTYRRMGRPDNYIIGFELFKVEMNRKFRLHHLYIQERAGTSTYIDTRTVFLSKYLKKGNYVLVPTMFQHGRTSEFLLRIFSEVPVQLRELTLDMPKMSCWNLARGYPKVVTQITVHSAEDLEKKYANETVNPYLVIKCGKEEVRSPVQKNTVHAIFDTQAIFYRRTTDIPIIVQVWNSRKFCDQFLGQVTLDADPSDCRDLKSLYLRKKGGPTAKVKQGHISFKVISSDDLTEL
B7: DOK1 (protein, UniProt Q99704 1-481, looked up)
Docking protein 1: MDGAVMEGPLFLQSQRFGTKRWRKTWAVLYPASPHGVARLEFFDHKGSSSGGGRGSSRRLDCKVIRLAECVSVAPVTVETPPEPGATAFRLDTAQRSHLLAADAPSSAAWVQTLCRNAFPKGSWTLAPTDNPPKLSALEMLENSLYSPTWEGSQFWVTVQRTEAAERCGLHGSYVLRVEAERLTLLTVGAQSQILEPLLSWPYTLLRRYGRDKVMFSFEAGRRCPSGPGTFTFQTAQGNDIFQAVETAIHRQKAQGKAGQGHDVLRADSHEGEVAEGKLPSPPGPQELLDSPPALYAEPLDSLRIAPCPSQDSLYSDPLDSTSAQAGEGVQRKKPLYWDLYEHAQQQLLKAKLTDPKEDPIYDEPEGLAPVPPQGLYDLPREPKDAWWCQARVKEEGYELPYNPATDDYAVPPPRSTKPLLAPKPQGPAFPEPGTATGSGIKSHNSALYSQVQKSGASGSWDCGLSRVGTDKTGVKSEGST
B8: LDB1 (protein, UniProt Q86U70 2-411, looked up)
LIM domain-binding protein 1: SVGCACPGCSSKSFKLYSPKEPPNGNAFPPFHPGTMLDRDVGPTPMYPPTYLEPGIGRHTPYGNQTDYRIFELNKRLQNWTEECDNLWWDAFTTEFFEDDAMLTITFCLEDGPKRYTIGRTLIPRYFRSIFEGGATELYYVLKHPKEAFHSNFVSLDCDQGSMVTQHGKPMFTQVCVEGRLYLEFMFDDMMRIKTWHFSIRQHRELIPRSILAMHAQDPQMLDQLSKNITRCGLSNSTLNYLRLCVILEPMQELMSRHKTYSLSPRDCLKTCLFQKWQRMVAPPAEPTRQQPSKRRKRKMSGGSTMSSGGGNTNNSNSKKKSPASTFALSSQVPDVMVVGEPTLMGGEFGDEDERLITRLENTQFDAANGIDDEDSFNNSPALGANSPWNSKPPSSQESKSENPTSQASQ
B9: GLB1 (protein, UniProt P16278 29-677, looked up)
Beta-galactosidase: QRMFEIDYSRDSFLKDGQPFRYISGSIHYSRVPRFYWKDRLLKMKMAGLNAIQTYVPWNFHEPWPGQYQFSEDHDVEYFLRLAHELGLLVILRPGPYICAEWEMGGLPAWLLEKESILLRSSDPDYLAAVDKWLGVLLPKMKPLLYQNGGPVITVQVENEYGSYFACDFDYLRFLQKRFRHHLGDDVVLFTTDGAHKTFLKCGALQGLYTTVDFGTGSNITDAFLSQRKCEPKGPLINSEFYTGWLDHWGQPHSTIKTEAVASSLYDILARGASVNLYMFIGGTNFAYWNGANSPYAAQPTSYDYDAPLSEAGDLTEKYFALRNIIQKFEKVPEGPIPPSTPKFAYGKVTLEKLKTVGAALDILCPSGPIKSLYPLTFIQVKQHYGFVLYRTTLPQDCSNPAPLSSPLNGVHDRAYVAVDGIPQGVLERNNVITLNITGKAGATLDLLVENMGRVNYGAYINDFKGLVSNLTLSSNILTDWTIFPLDTEDAVRSHLGGWGHRDSGHHDEAWAHNSSNYTLPAFYMGNFSIPSGIPDLPQDTFIQFPGWTKGQVWINGFNLGRYWPARGPQLTLFVPQHILMTSAPNTITVLELEWAPCSSDDPELCAVTFVDRPVIGSSVTYDHPSKPVEKRLMPPPPQKNKDSWLDHV
B10: PNMA2 (protein, UniProt Q9UL42 2-364, looked up)
Paraneoplastic antigen Ma2: ALALLEDWCRIMSVDEQKSLMVTGIPADFEEAEIQEVLQETLKSLGRYRLLGKIFRKQENANAVLLELLEDTDVSAIPSEVQGKGGVWKVIFKTPNQDTEFLERLNLFLEKEGQTVSGMFRALGQEGVSPATVPCISPELLAHLLGQAMAHAPQPLLPMRYRKLRVFSGSAVPAPEEESFEVWLEQATEIVKEWPVTEAEKKRWLAESLRGPALDLMHIVQADNPSISVEECLEAFKQVFGSLESRRTAQVRYLKTYQEEGEKVSAYVLRLETLLRRAVEKRAIPRRIADQVRLEQVMAGATLNQMLWCRLRELKDQGPPPSFLELMKVIREEEEEEASFENESIEEPEERDGYGRWNHEGDD

One assay concerns the target His6-avi-MBP-tagged POLE2. The assay can be described thus: Single-point nHU-MS with recombinant His6-avi-MBP-POLE2 bait, Jurkat extract. The class given is binding, human. To be noted: from the depletion of one peptide, single quantification; read-out: dissociation constant. An excerpt:
So far, our study only focused on a few hand-picked NPF motifs and studied them as short synthetic peptides. However, many other proteins may be present in the proteome that could bind to POLE2 and their putative NPF motifs are embedded in their natural structures that can greatly affect their binding properties. To investigate interactions between POLE2 and intact, full length proteins proteome-wide, we used nHU-MS experiments with recombinant His6-avi-MBP-tagged POLE2 as bait and purified His6-avi-MBP as a control. Even though we are aware that this recombinant POLE2 may bind to NPF motifs with a somewhat altered affinity, we assumed that this would affect all NPF motif-mediated interactions equally, allowing an unbiased affinity ranking of all identified partners. Single point nHU measurements were performed at 26 μM POLE2 concentration and the recovered supernatant was measured by label free proteomic MS measurements (Fig. 3A, Supplementary Figs. 8A, 9, Supplementary Data 1).
Single-point nHU experiments with protein baits were carried out nearly identically with two key modifications. First, the resin saturation step was carried out by mixing 50 μl streptavidin resin with 0.5−1 ml 50 μM biotinylated protein solution and the mixture was incubated for 1.5 h at 4 °C with constant agitation. Second, instead of using estimated bait concentrations, we measured it experimentally. An extra aliquot of resin stock was prepared alongside the nHU samples that were identically processed that were used to eluate the immobilized proteins under harsh conditions, in order to experimentally quantify the Cbait by using densitometry of Coomassie stained SDS-PAGE that included a protein calibration series. For this, 50 μl bait-saturated resin aliquots were mixed with 200 μl 4x Laemmli Sample Buffer (120 mM Tris-HCl pH 7, 8% SDS, 100 mM DTT, 32% glycerol, 0.004% bromphenol blue, 1% β-mercaptoethanol), instead of cell extract. After 15 min incubation at 95 °C, these samples were analyzed by SDS-PAGE using protein calibration standard, made from recombinant MBP. Densitometry was carried out after Coomassie staining on raw Tif images by using Fiji ImageJ 1.53c and experimental bait concentration were determined by adjusting for molecular weight differences between MBP and MBP-POLE2 constructs.
Samples were digested overnight at 37 °C.
B1: the Kd came out at 92 µM.

Still in this assay, the particulars now being: one DONSON peptide, single quantification.
For the molecule B1, the depletion result was “approximately 22%”.

Staying with this assay, now noted: significant apparent affinity of endogenous prey protein for POLE2 bait; single-point nHU-MS; Figure S11.
For the molecule B2, the pKapp_sign turned out to be 4.421. Consider B3, for which the pKapp_sign was 4.883.

Take B4: the pKapp_sign came to 4.815. On to B5, for which the pKapp_sign is given as 4.604. Turning to B6, the pKapp_sign stood at 5.695. On to B7, for which the pKapp_sign is given as 4.232.

Take B8: the pKapp_sign is reported as 4.689. On to B9, for which the pKapp_sign was 4.2.

Turning to B10, the pKapp_sign is listed as 5.251.

These data come from publication PMC12808100, “The non-catalytic DNA polymerase ε subunit is an NPF motif recognition protein” (Nature Communications, 2025).
